In patent US5679770A, “Polypeptide, DNA fragment encoding the same, drug composition containing the same and process for producing the same” (Mochida Pharmaceutical Co., Ltd., priority 1991, dated 1997):
Numbering of substitutions follows the chain as printed. Names and notes keep the numbering of the source. Values belong to the molecule of their own block, whether it stands above or below them.

Legend:
human trypsin = biological target: T1, human trypsin (Homo sapiens, UniProt P07477); assay: Human trypsin-inhibiting activity (synthetic substrate S-2444); type: biochemical; details: purified polypeptide, various concentration levels
T1 construct: purchased Calbiochem
Protocol: The purified polypeptide of the present invention was dissolved in 100 μl of distilled water. Concentration of polypeptide in the thus prepared solution was determined based on its bovine trypsin-inhibiting activity measured in accordance with the above procedure (1) using UTI (Mochida Pharmaceutical Co., Ltd.; cf. H. Ohnishi et al., Nippon Yakurigaku Zasshi, vol.85, pp.1-6, 1985) as a standard. The polypeptide solution was then diluted to various concentration levels with 0.03% BSA/0.2M triethanolamine-HCl buffer (pH 7.8) for use in the activity measurement. Separately from this, human trypsin (Calbiochem) was dissolved in 1 mM HCl to a concentration of 1,000 SU/ml and the solution was further diluted with the 0.03% BSA/0.2M triethanolamine-HCl buffer (pH 7.8) to prepare a 1.25 SU/ml solution of human trypsin. Thereafter, human trypsin-inhibiting activity was measured in the same manner as described in the above procedure (1) using the aforementioned synthetic substrate S-2444. Separately from this, polypeptide AN68 (sequence described in Example 17(3)) was diluted to various concentration levels. Thereafter, human trypsin-inhibiting activity was measured in the same manner as described in the above procedure (1) and compared with the trypsin-inhibiting activity of the novel polypeptide of the present invention.

Bovine trypsin = biological target: T2, Bovine trypsin (Bos taurus, UniProt P00760); assay: Bovine trypsin-inhibiting activity (synthetic substrate S-2444); type: biochemical; details: purified polypeptide, serially diluted
T2 construct: purchased Sigma Chemical Co. Type XIII
T2 sequence (P00760 24-246): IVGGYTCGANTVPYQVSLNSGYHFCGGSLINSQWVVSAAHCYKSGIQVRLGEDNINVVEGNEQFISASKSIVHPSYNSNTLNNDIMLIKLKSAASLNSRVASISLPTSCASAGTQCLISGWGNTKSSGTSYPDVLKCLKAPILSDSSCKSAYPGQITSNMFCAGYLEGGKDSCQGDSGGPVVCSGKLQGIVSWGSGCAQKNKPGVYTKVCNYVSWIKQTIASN
Protocol: The purified polypeptide of the present invention was dissolved in 100 μl of distilled water, and the solution was serially diluted with a 0.1% BSA/0.2M triethanolamine-HCl buffer (pH 7.8) for use in the activity measurement. Measurement of the trypsin-inhibiting activity in the thus prepared test sample was carried out in accordance with the Kassell's method (Kassell, B. et al., Methods in Enzymology, vol.19, pp.844-852, 1970) using a synthetic substrate S-2444 (Daiichi Pure Chemicals Co., Ltd.).
Bovine trypsin (Type XIII, Sigma Chemical Co.) was dissolved in 0.001M HCl to a final concentration of 13,600 BAEEU/ml and the solution was further diluted with 0.1% BSA/0.2M triethanolamine-HCl buffer (pH 7.8) to prepare 1.2 BAEEU/ml of trypsin solution. Separately from this, 2 mM solution of the synthetic substrate S-2444 was prepared by dissolving it in distilled water. Next, 100 μl of the test sample was mixed with 100 μl of the trypsin solution. After incubating statically at 37° C. for 10 minutes, 50 μl of the S-2444 solution was added to start the reaction. The reaction was carried out at 37° C. for 15 minutes and then stopped by adding 50 μl of 50% acetic acid solution to the reaction mixture. Thereafter, absorbance at a wavelength of 405 nm was measured using a spectrophotometer. In this instance, in order to eliminate absorbancy of various contents in the reaction mixture other than the reaction product, a blank solution was prepared by mixing 100 μl of the bovine trypsin solution with 50 μl of 50% acetic acid and then with 100 μl of each test sample and 50 μl of the S-2444 solution.

[1] = biological target: activated blood coagulation factor X (FXa) (Homo sapiens, UniProt P00742); details: background statement; cited from earlier work
human FXa = biological target: T3, human FXa (Homo sapiens, UniProt P00742); assay: FXa-inhibiting activity (synthetic substrate S-2222); type: biochemical; details: concentration expressed as bovine trypsin-inhibiting activity; for FXa-inhibiting activity, times higher than that of polypeptide TN70: relative to control TN70; for FXa-inhibiting activity, times higher than that of polypeptide AN68: relative to control AN68
T3 construct: purchased American Diagnostica Inc
Protocol: The purified polypeptide of the present invention was dissolved in 100 μl of distilled water. Polypeptide concentration of this solution was determined based on its bovine trypsin-inhibiting activity measured in accordance with the above procedure (1) using the aforementioned UTI as a standard. The thus prepared solution was then diluted to various concentration levels with 0.1% BSA/150 mM NaCl/5 mM CaCl2 /50 mM Tris-HCl buffer (pH 8.3) for use in the activity measurement. Separately from this, a polypeptide TN70 (cf. Japanese Patent Application No. 3-325220) and polypeptide AN68 were purified respectively in accordance with the procedure of Example 2(4) from a culture supernatant of E. coli JE5505(pM552) (deposit No., FERM BP-3561) and E. coli JE5505(pM594) obtained by transforming E. coli JE5505 with the aforementioned plasmid pM594 obtained in Example 4. The thus purified polypeptide TN70 and AN68 were diluted to various concentration levels to be used as control solutions.
Using a synthetic compound S-2222 (Daiichi Pure Chemicals Co., Ltd.) as a substrate, FXa-inhibiting activities in the thus prepared test sample solution and control solution were measured in accordance with the method of Ohno et al. (Ohno H. et al., Thromb. Res., vol.19, pp.579-588, 1980) as follows. First, human FXa (American Diagnostica Inc.) was dissolved in distilled water to a final concentration of 10 PEU/ml and the solution was further diluted with the aforementioned 0.1% BSA/150 mM NaCl/5 mM CaCl2 /50 mM Tris-HCl buffer (pH 8.3) to prepare 0.1 PEU/ml of FXa solution. Separately from this, a 4 mM solution of S-2222 was prepared by dissolving it in distilled water and the solution was further diluted with the 0.1% BSA/150 mM NaCl/5 mM CaCl2 /50 mM Tris-HCl buffer (pH 8.3) to obtain a 2 mM solution of S-2222.
Next, 25 μl of the test sample or control solution was mixed with 100 μl of the 0.1% BSA/150 mM NaCl/5 mM CaCl2 /50 mM Tris-HCl buffer (pH 8.3) and 25 μl of the FXa solution. After incubating statically at 37° C. for 10 minutes, 100 μl of the S-2222 solution was added to start the reaction. The reaction was carried out at 37° C. for 30 minutes and then stopped by adding 50 μl of 50% acetic acid solution to the reaction mixture. Thereafter, absorbance at a wavelength of 405 nm was measured using a spectrophotometer. In this instance, in order to eliminate absorbancy of various contents in the reaction mixture other than the reaction product, a blank solution was prepared by mixing 25 μl of the FXa solution with 50 μl of 50% acetic acid and then with 25 μl of each test sample or the control solution, 100 μl of the 0.1% BSA/150 mM NaCl/5 mM CaCl2 /50 mM Tris-HCl buffer (pH 8.3) and with 100 μl of the S-2222 solution.
The results are shown in FIG. 45 to FIG. 53 and FIG. 66. In these figures, polypeptide concentration in the reaction solution was expressed as its bovine trypsin-inhibiting activity. Also, residual human FXa activity was expressed by percentage based on the absorbance of a control reaction mixture in which 25 μl of the 0.1% BSA/150 mM NaCl/5 mM CaCl2 /50 mM Tris-HCl buffer (pH 8.3) was used instead of the test sample.

T3 sequence (P00742 235-488 limits assumed): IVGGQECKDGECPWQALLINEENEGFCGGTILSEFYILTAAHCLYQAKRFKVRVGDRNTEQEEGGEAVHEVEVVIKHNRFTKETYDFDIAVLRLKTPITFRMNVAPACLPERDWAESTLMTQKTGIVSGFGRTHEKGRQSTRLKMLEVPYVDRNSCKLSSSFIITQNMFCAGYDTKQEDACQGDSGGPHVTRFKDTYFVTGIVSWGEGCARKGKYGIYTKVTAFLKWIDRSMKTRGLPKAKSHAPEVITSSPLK
T3 sequence (P00742 41-179 partner limits assumed): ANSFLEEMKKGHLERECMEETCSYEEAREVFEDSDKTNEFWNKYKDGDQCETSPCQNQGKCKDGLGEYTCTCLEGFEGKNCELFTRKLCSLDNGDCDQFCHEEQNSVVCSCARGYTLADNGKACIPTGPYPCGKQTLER
Chain of activated blood coagulation factor X (FXa) (P00742 235-488 limits assumed): as the sequence (P00742 235-488 limits assumed) above
Chain of activated blood coagulation factor X (FXa) (P00742 41-179 partner limits assumed): as the sequence (P00742 41-179 partner limits assumed) above

Molecule: Y46E-AN: formula 1 sequence with Glu for position 42 Tyr; amino acids 1-68 of SEQ. I.D. NO. 12; plasmid pM575C (MKQSTIALALLPLLFTPVTKA)
- human trypsin inhibition (human trypsin): can inhibit human trypsin in a concentration-dependent manner
- bovine trypsin inhibition (Bovine trypsin): can inhibit bovine trypsin in a concentration-dependent manner

Molecule: polypeptide of formula 1: unsubstituted parent polypeptide whose sequence coincides with a part of UTI or Bikunins (HI-30) (CNLPIVRGPCRAFIQLWAFDAVKGKCVLFPYGGCQGNGNKFYSEKECREYC) [reference compound]
- FXa-inhibiting activity [1]: high FXa-inhibiting activity

Molecule: Q19K-AN: formula 1 sequence with Lys for position 15 Gln; amino acids 1-68 of SEQ. I.D. NO. 14; plasmid pM576B (AACNLPIVRGPCRAFIKLWAFDAVKGKCVLFPYGGCQGNGNKFYSEK)
- human trypsin inhibition (human trypsin): can inhibit human trypsin in a concentration-dependent manner
- bovine trypsin inhibition (Bovine trypsin): can inhibit bovine trypsin in a concentration-dependent manner

Molecule: R11E/Y46E: formula 1 sequence with Glu for position 7 Arg and Glu for position 42 Tyr; SEQ. I.D. No. 10; plasmid pM726B (AACNLPIVEGPCRAFIQLWAFDAVKGKCVLFPYGGCQGNGNKFESEK)
- human trypsin inhibition (human trypsin): can inhibit human trypsin in a concentration-dependent manner
- bovine trypsin inhibition (Bovine trypsin): can inhibit bovine trypsin in a concentration-dependent manner
- FXa-inhibiting activity, times higher than that of polypeptide AN68 (human FXa): about three

Molecule: Q19R/Y46E: formula 1 sequence with Arg for position 15 Gln and Glu for position 42 Tyr; SEQ. I.D. NO. 16; plasmid pM737B (AACNLPIVRGPCRAFIRLWAFDAVKGKCVLFPYGGCQGNGNKFESEK)
- human trypsin inhibition (human trypsin): can inhibit human trypsin in a concentration-dependent manner
- bovine trypsin inhibition (Bovine trypsin): can inhibit bovine trypsin in a concentration-dependent manner
- FXa-inhibiting activity, times higher than that of polypeptide AN68 (human FXa): about ten

Further lines, with some results ahead:

- FXa-inhibiting activity, times higher than that of polypeptide TN70 (human FXa): about seven
Molecule: Y46E: formula 1 sequence with Glu for position 42 Tyr; amino acids 1-70 of SEQ. I.D. NO. 2; from plasmid pM575B (TVAACNLPIVRGPCRAFIQLWAFDAVKGKCVLFPYGGCQGNGNKFESEK)
- human trypsin inhibition (human trypsin): can inhibit human trypsin in a concentration-dependent manner
- bovine trypsin inhibition (Bovine trypsin): can inhibit bovine trypsin in a concentration-dependent manner

- FXa-inhibiting activity, times higher than that of polypeptide AN68 (human FXa): about six
Molecule: Q19R: formula 1 sequence with Arg for position 15 Gln; amino acids 1-68 of SEQ. I.D. NO. 6; plasmid pM735 (AACNLPIVRGPCRAFIRLWAFDAVKGKCVLFPYGGCQGNGNKFYSEK)
- human trypsin inhibition (human trypsin): can inhibit human trypsin in a concentration-dependent manner
- bovine trypsin inhibition (Bovine trypsin): can inhibit bovine trypsin in a concentration-dependent manner

- FXa-inhibiting activity, times higher than that of polypeptide AN68 (human FXa): about ten
Molecule: Q19K/Y46E: formula 1 sequence with Lys for position 15 Gln and Glu for position 42 Tyr; SEQ. I.D. NO. 8; plasmid pM736 (AACNLPIVRGPCRAFIKLWAFDAVKGKCVLFPYGGCQGNGNKFESEK)
- human trypsin inhibition (human trypsin): can inhibit human trypsin in a concentration-dependent manner
- bovine trypsin inhibition (Bovine trypsin): can inhibit bovine trypsin in a concentration-dependent manner

- FXa-inhibiting activity, times higher than that of polypeptide TN70 (human FXa): about five
Molecule: Q19K: formula 1 sequence with Lys for position 15 Gln; amino acids 1-70 of SEQ. I.D. NO. 4; plasmid pM576 (DDAACNLPIVRGPCRAFIKLWAFDAVKGKCVLFPYGGCQGNGNKFYSEK)
- human trypsin inhibition (human trypsin): can inhibit human trypsin in a concentration-dependent manner
- bovine trypsin inhibition (Bovine trypsin): can inhibit bovine trypsin in a concentration-dependent manner

- FXa-inhibiting activity, times higher than that of polypeptide AN68 (human FXa): about 18 times
B1: Q19R/Y46D: formula 1 sequence with Arg for position 15 Gln and Asp for position 42 Tyr; SEQ. I.D. NO. 36; plasmid pM744 (protein)
chain: AACNLPIVRGPCRAFIRLWAFDAVKGKCVLFPYGGCQGNGNKFDSEKECREYCGVPGDGDEELLRFSN
- human trypsin inhibition (human trypsin): can inhibit human trypsin in a concentration-dependent manner
- bovine trypsin inhibition (Bovine trypsin): can inhibit bovine trypsin in a concentration-dependent manner

- FXa-inhibiting activity, times higher than that of polypeptide AN68 (human FXa): about twenty
B2: Q19K/Y46D: formula 1 sequence with Lys for position 15 Gln and Asp for position 42 Tyr; SEQ. I.D. NO. 35; plasmid pM727 (protein)
chain: B1 chain with R17K
- human trypsin inhibition (human trypsin): can inhibit human trypsin in a concentration-dependent manner
- bovine trypsin inhibition (Bovine trypsin): can inhibit bovine trypsin in a concentration-dependent manner
